T1: CEACAM5 (R&D Systems, 4128-CM-050) (human, UniProt P06731 35-685)
T1 construct: Immobilised on the ELISA plate; also called human CEACAM5
T1 sequence (looked up): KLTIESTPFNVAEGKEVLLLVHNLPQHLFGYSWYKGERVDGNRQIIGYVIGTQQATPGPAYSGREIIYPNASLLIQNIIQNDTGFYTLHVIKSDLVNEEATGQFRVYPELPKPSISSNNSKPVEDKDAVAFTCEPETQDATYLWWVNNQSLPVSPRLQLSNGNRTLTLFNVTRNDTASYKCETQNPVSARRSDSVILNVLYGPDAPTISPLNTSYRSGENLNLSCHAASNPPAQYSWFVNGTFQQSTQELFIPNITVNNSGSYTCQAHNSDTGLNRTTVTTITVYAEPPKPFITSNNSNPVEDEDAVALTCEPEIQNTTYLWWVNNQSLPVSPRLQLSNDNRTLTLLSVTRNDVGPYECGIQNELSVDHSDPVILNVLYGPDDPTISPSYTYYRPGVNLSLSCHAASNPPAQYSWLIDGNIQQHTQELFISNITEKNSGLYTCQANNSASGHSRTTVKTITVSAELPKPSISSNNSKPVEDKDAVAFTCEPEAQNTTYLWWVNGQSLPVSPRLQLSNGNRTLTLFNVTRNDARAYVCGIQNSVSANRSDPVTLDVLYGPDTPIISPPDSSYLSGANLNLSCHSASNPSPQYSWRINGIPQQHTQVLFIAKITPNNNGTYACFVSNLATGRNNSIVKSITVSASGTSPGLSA

B1: [Gd/DOTA-NH-(CH2CH2O)3-CH2-C(═O)-NH-CH2-(1,3-Ph)-C(═O)-Met-Gly-Lys*-Z2(#N)]p-Fab^2 (Fab, V domains shown)
VH: EVQLVESGGGLVQPGGSLRLSCAASGFNIRDTYMHWVRQAPGKGLEWVARIDPANGNSRYVPKFQGRFTISADTSRNTAYLQMNSLRAEDTAVYYCAPFGYYVSDYAMAYWGQGTLVTVSS
VL: DIQLTQSPSSLSASVGDRVTITCRAGESVDIFGVGFLHWYQQKPGKAPKLLIYRASNLESGIPSRFSGSGSRTDFTLTISSLQPEDFATYYCQQTNEDPYTFGQGTKVEIKR
modifications: labeling may sit on this chain; sites not stated; labeling portion (MW 1278) on amino groups of the Fab, sites and chain not stated; 1-2 per Fab by MS
notes: also called Ex-No 29; Conjugate No. 29
B2: [Gd/DOTA-NH-CH2-(1,3-Ph)-C(═O)-Met-Gly-Lys*-Z2(#N)]p-Fab^2 (Fab, V domains shown)
VH: B1 VH
VL: B1 VL
modifications: labeling may sit on this chain; sites not stated; labeling portion (MW 1089) on amino groups of the Fab, sites and chain not stated; 1-3 per Fab by MS
notes: also called Ex-No 13; Conjugate No. 13
B3: (Y-S1-X)p-Fab^2 with Y Gd/DOTA, S1 -NH-(CH2)2-C(═O)-, X -Gly-Lys*-Z2(#N)- (Fab, V domains shown)
VH: B1 VH
VL: B1 VL
modifications: labeling may sit on this chain; sites not stated; labeling portion (MW 896) on amino groups of the Fab, sites and chain not stated; 1-3 per Fab by MS
notes: also called Ex-No 22; conjugate 22
B4: [Gd/4arm-DOTA-CH2-(1,4-Ph)-NH-C(═S)-NH-CH2-(1,3-Ph)-C(═O)-Met-Gly-Lys*-Z2(#S)]p-Fab^2 (Fab, V domains shown)
VH: B1 VH
VL: B1 VL
modifications: labeling may sit on this chain; sites not stated; labeling portion (MW 1355) bound via 2-iminothiolane-treated amino groups of the Fab, sites and chain not stated; 1-2 per Fab by MS
notes: also called Ex-No 40; Conjugate No. 40
B5: (Y-S1-X)p-Fab^2 with Y Gd/DOTA, S1 -NH-CH2-(1,4-Ph)-C(═O)-, X -Met-Gly-Lys*-Z2(#S)- (Fab, V domains shown)
VH: B1 VH
VL: B1 VL
modifications: labeling may sit on this chain; sites not stated; labeling portion (MW 1190) on amino groups of the Fab, sites and chain not stated; 1-3 per Fab by MS
notes: also called Ex-No 38; conjugate 38
B6: (Y-S1-X)p-Fab^2 with Y Gd/DOTA, S1 - (bond), X -Gly-Lys*-Z2(#N)- (Fab, V domains shown)
VH: B1 VH
VL: B1 VL
modifications: labeling may sit on this chain; sites not stated; labeling portion (MW 825) on amino groups of the Fab, sites and chain not stated; 1-3 per Fab by MS
notes: also called Ex-No 20; conjugate 20
B7: (Y-S1-X)p-Fab^2 with Y Gd/DOTA, S1 - (bond), X -Gly-Tyr*-CH2(═O)-NH-(CH2)2-Z1(#N)- (Fab, V domains shown)
VH: B1 VH
VL: B1 VL
modifications: labeling may sit on this chain; sites not stated; labeling portion (MW 960) on amino groups of the Fab, sites and chain not stated; 1-4 per Fab by MS
notes: also called Ex-No 21; conjugate 21
B8: (Y-S1-X)p-Fab^2 with Y Gd/DOTA, S1 -NH-CH2-(1,3-Ph)-C(═O)-, X -Gly-Tyr*-CH2-C(═O)-NH-(CH2)2-Z1(#N)- (Fab, V domains shown)
VH: B1 VH
VL: B1 VL
modifications: labeling may sit on this chain; sites not stated; labeling portion (MW 1093) on amino groups of the Fab, sites and chain not stated; 1-3 per Fab by MS
notes: also called Ex-No 14; conjugate 14
B9: (Y-S1-X)p-Fab^2 with Y Gd/DOTA, S1 - (bond), X -Gly-Tyr-Lys*-Z2(#N)- (Fab, V domains shown)
VH: B1 VH
VL: B1 VL
modifications: labeling may sit on this chain; sites not stated; labeling portion (MW 988) on amino groups of the Fab, sites and chain not stated; 1-4 per Fab by MS
notes: also called Ex-No 19; conjugate 19
B10: (Y-S1-X)p-Fab^2 with Y Gd/DOTA, S1 spacer (a), X -Gly-Lys*-Z2(#N)- (Fab, V domains shown)
VH: B1 VH
VL: B1 VL
modifications: labeling may sit on this chain; sites not stated; labeling portion (MW 936) on amino groups of the Fab, sites and chain not stated; 1-3 per Fab by MS
notes: also called Ex-No 23; conjugate 23
B11: (Y-S1-X)p-Fab^2 with Y Gd/DOTA, S1 spacer (m), X -Met-Gly-Lys*-Z2(#N)- (Fab, V domains shown)
VH: B1 VH
VL: B1 VL
modifications: labeling may sit on this chain; sites not stated; labeling portion (MW 1107) on amino groups of the Fab, sites and chain not stated; 1 per Fab by MS
notes: also called Ex-No 42; conjugate 42
B12: (Y-S1-X)p-Fab^2 with Y Gd/DOTA, S1 - (bond), X -Gly-(diph-Ala)-Lys*-Z2(#S)- (Fab, V domains shown)
VH: B1 VH
VL: B1 VL
modifications: labeling may sit on this chain; sites not stated; labeling portion (MW 1149) on amino groups of the Fab, sites and chain not stated; 1-3 per Fab by MS
notes: also called Ex-No 30; conjugate 30
B13: (Y-S1-X)p-Fab^2 with Y Gd/DOTA, S1 spacer (d), X -Gly-Lys*-Z2(#N)- (Fab, V domains shown)
VH: B1 VH
VL: B1 VL
modifications: labeling may sit on this chain; sites not stated; labeling portion (MW 954) on amino groups of the Fab, sites and chain not stated; 1-3 per Fab by MS
notes: also called Ex-No 26; conjugate 26
B14: [Gd/DOTA-[2,5-(1,2,3,4-tetrahydroisoquinoline)]-C(═O)-Met-Gly-Lys*-Z2(#N)]p-Fab^2 (Fab, V domains shown)
VH: B1 VH
VL: B1 VL
modifications: labeling may sit on this chain; sites not stated; labeling portion (MW 1115) on amino groups of the Fab, sites and chain not stated; 1-2 per Fab by MS
notes: also called Ex-No 33; Conjugate No. 33
B15: (Y-S1-X)p-Fab^2 with Y Gd/DOTA, S1 - (bond), X -Gly-Tyr*-CH2-C(═O)-NH-(CH2)2-Z1(#S)- (Fab, V domains shown)
VH: B1 VH
VL: B1 VL
modifications: labeling may sit on this chain; sites not stated; labeling portion (MW 1061) on amino groups of the Fab, sites and chain not stated; 1-3 per Fab by MS
notes: also called Ex-No 7; conjugate 7
B16: (Y-S1-X)p-Fab^2 with Y Gd/DOTA, S1 spacer (e), X -Met-Gly-Lys*-Z2(#N)- (Fab, V domains shown)
VH: B1 VH
VL: B1 VL
modifications: labeling may sit on this chain; sites not stated; labeling portion (MW 1095) on amino groups of the Fab, sites and chain not stated; 1-2 per Fab by MS
notes: also called Ex-No 32; conjugate 32
B17: [Gd/DOTA-NH-(CH2CH2O)3-CH2-C(═O)-NH-CH2-(1,3-Ph)-C(═O)-Gly-Lys*-Z2(#N)]p-Fab^2 (Fab, V domains shown)
VH: B1 VH
VL: B1 VL
modifications: labeling may sit on this chain; sites not stated; labeling portion (MW 1147) on amino groups of the Fab, sites and chain not stated; 1-3 per Fab by MS
notes: also called Ex-No 15; Conjugate No. 15
B18: (Y-S1-X)p-Fab^2 with Y Gd/DOTA, S1 - (bond), X -Gly-(naph-Ala)-Lys*-Z2(#S)- (Fab, V domains shown)
VH: B1 VH
VL: B1 VL
modifications: labeling may sit on this chain; sites not stated; labeling portion (MW 1123) on amino groups of the Fab, sites and chain not stated; 1-2 per Fab by MS
notes: also called Ex-No 31; conjugate 31

target: T1, CEACAM5 (R&D Systems, 4128-CM-050); experiment: ELISA on immobilised CEACAM5, 4-parameter fit, duplicate
Protocol: Each anti-human CEACAM5 antibody Fab fragment conjugate prepared in Example 2 was subjected to ELISA to evaluate the binding activity thereof to CEACAM5. In the present test, a phosphate buffer (Nacalai Tesque Inc., 0.1 mol/L-Phosphate Buffer Solution (pH 7.2)) prepared to 10 mM by diluting 10-fold with distilled water was used as a solvent for an antigen immobilization liquid, and 20×PBS/Tween 20 Buffer (Thermo Fisher Scientific Inc., 28352) diluted 20-fold with distilled water was used as a wash liquid. In addition, for bovine serum albumin (BSA) used in the present test, 30% Bovine Serum Albumin solution (Sigma-Aldrich, Inc., A9576-50ML) was added in an appropriate proportion for use. CEACAM5 (R&D Systems, 4128-CM-050) was diluted with a 10 mM phosphate buffer (pH 7.2) to 0.1 μg/mL, and added to a Nunc MaxiSorp White 384 plate (Nunc, 4603272) at 30 μL per well, and the plate was incubated overnight at 4° C. for immobilization. The CEACAM5 immobilization liquid was removed by reverse centrifugation, and then blocking was carried out by adding a PBS/Tween 20 buffer containing 5.0% BSA. Thereafter, the blocking solution was removed by reverse centrifugation, a solution of each CEACAM5 antibody Fab² fragment conjugate described above or a Fab² fragment having no labeling portion (PB009-01) as a control at about 10000 ng/mL was diluted in 14 steps by 3-fold dilution using a PBS/Tween 20 buffer containing 1.0% BSA, and 30 μL was added per well and incubated at room temperature for 60 minutes. The plate was washed 3 times with a PBS/Tween 20 buffer, and Horseradish Peroxidase (HRP)-labeled goat anti-human IgG (H+L chain) antibody (MBL Life Sciences, 206) diluted 1000-fold using a PBS/Tween 20 buffer containing 5.0% BSA was added at 30 μL per well and incubated at room temperature for 30 minutes. The plate was washed 3 times with a PBS/Tween 20 buffer, and ECL Prime Western Blotting DETECTION Reagent (GE Healthcare, RPN2232) as a substrate was added at 30 μL per well. The substrate was incubated at room temperature for 15 minutes, and then a signal value thereof was measured using an Envision counter (PerkinElmer, Inc.).
The test for each antibody was carried out in duplicate, and an EC₅₀ value was calculated using a 4-parameter logistic curve model.

EC50 [nM] | Binder
0.3 | B1
0.14 | B2
0.32 | B3
0.22 | B4
0.18 | B5
0.22 | B6
0.27 | B7
0.13 | B8
0.26 | B9
0.33 | B10
0.21 | B11
0.31 | B12
0.3 | B13
0.33 | B14
0.17 | B15
0.37 | B16
0.13 | B17
0.3 | B18

From patent US20220096653A1, “CONJUGATE COMPRISING LIGAND AND CEACAM5 ANTIBODY FAB FRAGMENT” (ASTELLAS PHARMA INC., priority 2019, published 2022)
